Results on four molecules are retold here after publication PMC11405395 (The EMBO Journal, 2024).

The target of assay [1] is T1, Homo sapiens DNA polymerase ε (POLE1, POLE2, POLE3, POLE4) (human, UniProt Q07864 1-2286; P56282 1-527; Q9NRF9 1-147; Q9NR33 1-117).
T1 construct: POLE1 (catalytic subunit of DNA polymerase ε), human; POLE2 (homologue of budding yeast Dpb2), human (PolE2_tev_2XFLAG; tag removed with TEV protease); POLE3, human; POLE4, human; The methods call the removed tag 3FLAG, the strain and plasmid 2XFLAG; also called hsPOL ε; POL ε; source: S. cerevisiae strain ySP061, purified (anti-FLAG M2 resin, TEV cleavage, MonoQ, Superdex 200); not shown: …
As to the kind of experiment: co-IP; purified proteins mixed: 10 nM RTEL1-FLAG with 15 nM hsPol ε, 10 min on ice; anti-FLAG M2 magnetic beads; 25 mM Hepes-KOH pH 7.6, 200 mM KOAc, 0.02% NP-40-S, 0.1 mg/mL BSA, 1 mM DTT, 10 mM Mg(OAc)2; immunoblotting. Conditions: both partners purified. For orientation: A western blot detects proteins with antibodies after separation by electrophoresis.

The target in assay [2] is T2, Homo sapiens CMG helicase (CDC45-MCM2-7-GINS) (human, UniProt P49736 1-904; P25205 1-808; P33991 1-863; P33992 1-734; Q14566 1-821; P33993 …).
T2 construct: MCM2, human, subunit of CMG; MCM3, human, subunit of CMG; MCM4, human, subunit of CMG; MCM5, human, subunit of CMG; MCM6, human, subunit of CMG; MCM7, human, subunit of CMG; CDC45, human, subunit of CMG; SLD5 (GINS4), human, GINS subunit of CMG (PrA-3TEV-HsSld5; eluted from IgG Sepharose with TEV protease); PSF1 (GINS1), human, GINS subunit of CMG; PSF2 (GINS2), human, GINS subunit of CMG; PSF3 …
As to the kind of experiment: co-IP; purified proteins mixed: 10 nM RTEL1-FLAG with 15 nM hsCMG, 10 min on ice; anti-FLAG M2 magnetic beads; 25 mM Hepes-KOH pH 7.6, 100 mM KOAc, 0.02% NP-40-S, 0.1 mg/mL BSA, 1 mM DTT, 10 mM Mg(OAc)2; immunoblotting. As to conditions: both partners purified.

T1 sequence (Q07864 whole entry, chain 1 of 4): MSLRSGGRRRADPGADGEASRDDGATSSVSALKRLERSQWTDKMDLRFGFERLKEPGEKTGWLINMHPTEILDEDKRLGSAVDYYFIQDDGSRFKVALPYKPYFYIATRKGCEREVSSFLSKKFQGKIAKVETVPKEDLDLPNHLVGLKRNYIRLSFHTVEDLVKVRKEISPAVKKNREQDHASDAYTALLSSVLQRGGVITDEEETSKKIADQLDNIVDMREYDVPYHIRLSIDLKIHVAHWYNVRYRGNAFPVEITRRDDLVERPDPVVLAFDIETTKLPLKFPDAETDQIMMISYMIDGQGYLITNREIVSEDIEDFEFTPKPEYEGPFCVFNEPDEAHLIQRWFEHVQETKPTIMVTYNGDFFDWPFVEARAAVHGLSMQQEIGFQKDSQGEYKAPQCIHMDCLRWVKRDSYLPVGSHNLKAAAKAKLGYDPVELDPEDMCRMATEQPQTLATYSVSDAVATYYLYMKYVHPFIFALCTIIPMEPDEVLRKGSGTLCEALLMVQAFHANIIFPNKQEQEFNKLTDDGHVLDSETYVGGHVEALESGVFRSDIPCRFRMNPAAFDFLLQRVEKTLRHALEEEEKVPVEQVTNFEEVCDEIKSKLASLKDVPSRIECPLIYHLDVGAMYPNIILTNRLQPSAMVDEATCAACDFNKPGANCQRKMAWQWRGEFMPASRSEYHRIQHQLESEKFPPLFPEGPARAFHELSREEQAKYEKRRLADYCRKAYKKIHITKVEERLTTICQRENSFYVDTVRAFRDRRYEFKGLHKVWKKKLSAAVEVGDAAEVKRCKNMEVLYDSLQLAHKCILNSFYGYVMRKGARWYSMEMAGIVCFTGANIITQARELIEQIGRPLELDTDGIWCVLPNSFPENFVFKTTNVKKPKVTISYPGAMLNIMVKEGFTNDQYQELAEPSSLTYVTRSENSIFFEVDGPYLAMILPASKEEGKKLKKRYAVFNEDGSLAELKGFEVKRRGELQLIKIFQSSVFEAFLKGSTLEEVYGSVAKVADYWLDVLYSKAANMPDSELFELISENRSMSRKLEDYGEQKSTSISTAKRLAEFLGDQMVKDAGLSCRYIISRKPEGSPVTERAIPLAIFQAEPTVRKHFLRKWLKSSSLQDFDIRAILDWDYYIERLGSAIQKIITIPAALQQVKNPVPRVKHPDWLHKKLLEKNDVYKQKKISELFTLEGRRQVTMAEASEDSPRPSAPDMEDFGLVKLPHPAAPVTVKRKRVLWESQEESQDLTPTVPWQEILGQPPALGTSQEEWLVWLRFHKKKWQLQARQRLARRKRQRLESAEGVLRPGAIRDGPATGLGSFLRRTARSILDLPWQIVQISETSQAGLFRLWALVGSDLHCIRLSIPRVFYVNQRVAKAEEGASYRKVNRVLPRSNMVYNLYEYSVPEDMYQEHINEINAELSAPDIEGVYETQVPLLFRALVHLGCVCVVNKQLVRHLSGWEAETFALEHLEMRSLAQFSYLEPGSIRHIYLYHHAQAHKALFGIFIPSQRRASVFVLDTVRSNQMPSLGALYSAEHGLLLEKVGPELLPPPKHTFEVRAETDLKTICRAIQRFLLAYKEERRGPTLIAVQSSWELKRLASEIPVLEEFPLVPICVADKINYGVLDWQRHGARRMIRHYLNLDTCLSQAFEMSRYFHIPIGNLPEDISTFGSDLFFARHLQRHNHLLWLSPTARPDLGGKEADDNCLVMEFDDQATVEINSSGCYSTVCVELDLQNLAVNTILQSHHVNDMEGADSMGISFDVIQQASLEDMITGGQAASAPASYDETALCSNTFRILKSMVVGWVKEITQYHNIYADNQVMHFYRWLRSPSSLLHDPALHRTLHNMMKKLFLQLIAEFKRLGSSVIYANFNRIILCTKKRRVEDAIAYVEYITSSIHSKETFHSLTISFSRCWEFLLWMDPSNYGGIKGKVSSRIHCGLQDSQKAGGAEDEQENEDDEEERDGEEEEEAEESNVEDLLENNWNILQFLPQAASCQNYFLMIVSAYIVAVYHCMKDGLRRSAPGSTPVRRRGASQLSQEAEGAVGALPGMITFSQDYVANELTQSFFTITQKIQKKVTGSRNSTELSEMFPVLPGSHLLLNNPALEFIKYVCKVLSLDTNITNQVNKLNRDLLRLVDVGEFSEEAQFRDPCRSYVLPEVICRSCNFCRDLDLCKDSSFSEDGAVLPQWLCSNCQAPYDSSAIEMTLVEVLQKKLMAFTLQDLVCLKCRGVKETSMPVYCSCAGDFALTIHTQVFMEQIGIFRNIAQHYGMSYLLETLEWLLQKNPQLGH
T1 sequence (P56282 whole entry, chain 2 of 4): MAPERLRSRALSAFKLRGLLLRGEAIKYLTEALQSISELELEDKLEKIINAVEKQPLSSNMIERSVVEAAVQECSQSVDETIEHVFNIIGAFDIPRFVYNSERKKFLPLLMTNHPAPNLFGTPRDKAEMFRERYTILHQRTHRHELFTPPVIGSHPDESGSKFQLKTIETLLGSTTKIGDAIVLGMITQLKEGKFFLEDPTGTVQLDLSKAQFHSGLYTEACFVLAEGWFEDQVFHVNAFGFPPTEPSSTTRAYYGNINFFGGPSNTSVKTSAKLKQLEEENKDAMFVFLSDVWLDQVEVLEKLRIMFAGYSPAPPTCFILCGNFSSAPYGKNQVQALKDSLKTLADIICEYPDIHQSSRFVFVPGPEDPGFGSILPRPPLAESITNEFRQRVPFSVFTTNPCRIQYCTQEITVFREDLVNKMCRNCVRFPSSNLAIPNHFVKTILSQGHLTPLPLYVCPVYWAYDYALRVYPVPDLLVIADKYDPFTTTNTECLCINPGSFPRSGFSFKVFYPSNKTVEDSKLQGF
T1 sequence (Q9NRF9 whole entry, chain 3 of 4): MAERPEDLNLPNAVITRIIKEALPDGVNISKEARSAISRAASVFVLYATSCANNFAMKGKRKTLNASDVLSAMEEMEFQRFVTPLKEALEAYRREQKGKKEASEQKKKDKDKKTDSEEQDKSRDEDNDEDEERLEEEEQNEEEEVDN
T1 sequence (Q9NR33 whole entry, chain 4 of 4): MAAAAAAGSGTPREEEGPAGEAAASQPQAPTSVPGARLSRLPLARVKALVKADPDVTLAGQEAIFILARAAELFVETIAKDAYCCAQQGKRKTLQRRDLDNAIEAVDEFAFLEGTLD

B1: RTEL1ΔR875-V881 (enzyme, human, UniProt Q9NZ71-1 1-1219, looked up)
chain: MPKIVLNGVTVDFPFQPYKCQQEYMTKVLECLQQKVNGILESPTGTGKTLCLLCTTLAWREHLRDGISARKIAERAQGELFPDRALSSWGNAAAAAGDPIACYTDIPKIIYASRTHSQLTQVINELRNTSYRPKVCVLGSREQLCIHPEVKKQESNHLQIHLCRKKVASRSCHFYNNVEEKSLEQELASPILDIEDLVKSGSKHRVCPYYLSRNLKQQADIIFMPYNYLLDAKSRRAHNIDLKGTVVIFDEAHNVEKMCEESASFDLTPHDLASGLDVIDQVLEEQTKAAQQGEPHPEFSADSPSPGLNMELEDIAKLKMILLRLEGAIDAVELPGDDSGVTKPGSYIFELFAEAQITFQTKGCILDSLDQIIQHLAGRAGVFTNTAGLQKLADIIQIVFSVDPSEGSPGSPAGLGALQSYKVHIHPDAGHRRTAQRSDAWSTTAARKRGKVLSYWCFSPGHSMHELVRQGVRSLILTSGTLAPVSSFALEMQIPFPVCLENPHIIDKHQIWVGVVPRGPDGAQLSSAFDRRFSEECLSSLGKALGNIARVVPYGLLIFFPSYPVMEKSLEFWRARDLARKMEALKPLFVEPRSKGSFSETISAYYARVAAPGSTGATFLAVCRGKASEGLDFSDTNGRGVIVTGLPYPPRMDPRVVLKMQFLDEMKGQGGAGGQFLSGQEWYRQQASRAVNQAIGRVIRHRQDYGAVFLCDHRFAFADARAQLPSWVRPHVRVYDNFGHVIRDVAQFFRVAERTMPAPAPRATAPSVRGEDAVSEAKSPGPFFSTRKAKSLDLHVPSLKQRSSGSPAAGDPESSLCVEYEQEPVPARQRPRGLLAALEHSEQRAGSPGEEQAHSCSTLSLLSEKRPAEEPRGGSHPEEPVAGAQTDRAKLFMVAVKQELSQANFATFTQALQDYKGSDDFAALAACLGPLFAEDPKKHNLLQGFYQFVRPHHKQQFEEVCIQLTGRGCGYRPEHSIPRRQRAQPVLDPTGRTAPDPKLTVSTAAAQQLDPQEHLNQGRPHLSPRPPPTGDPGSQPQWGSGVPRAGKQGQHAVSAYLADARRALGSAGCSQLLAALTAYKQDDDLDKVLAVLAALTTAKPEDFPLLHRFSMFVRPHHKQRFSQTCTDLTGRPYPGMEPPGPQEERLAVPPVLTHRAPQPGPSRSEKTGKTQSKISSFLRQRPAGTVGAGGEDAGPSQSSGPPHGPAASEWGL
notes: Plasmid pSP52; also called hsRTEL1ΔR875-V881; source: S. cerevisiae strain ySP076, purified (anti-FLAG M2 resin, HiLoad Superdex 200); not shown: 2XFLAG, C-terminal, kept
As to B1, the binding result in assay [1] was “binds”.

B2: RTEL1 ΔE813-E821 ΔR875-V881 (enzyme, human, UniProt Q9NZ71-1 1-1219, looked up)
chain: MPKIVLNGVTVDFPFQPYKCQQEYMTKVLECLQQKVNGILESPTGTGKTLCLLCTTLAWREHLRDGISARKIAERAQGELFPDRALSSWGNAAAAAGDPIACYTDIPKIIYASRTHSQLTQVINELRNTSYRPKVCVLGSREQLCIHPEVKKQESNHLQIHLCRKKVASRSCHFYNNVEEKSLEQELASPILDIEDLVKSGSKHRVCPYYLSRNLKQQADIIFMPYNYLLDAKSRRAHNIDLKGTVVIFDEAHNVEKMCEESASFDLTPHDLASGLDVIDQVLEEQTKAAQQGEPHPEFSADSPSPGLNMELEDIAKLKMILLRLEGAIDAVELPGDDSGVTKPGSYIFELFAEAQITFQTKGCILDSLDQIIQHLAGRAGVFTNTAGLQKLADIIQIVFSVDPSEGSPGSPAGLGALQSYKVHIHPDAGHRRTAQRSDAWSTTAARKRGKVLSYWCFSPGHSMHELVRQGVRSLILTSGTLAPVSSFALEMQIPFPVCLENPHIIDKHQIWVGVVPRGPDGAQLSSAFDRRFSEECLSSLGKALGNIARVVPYGLLIFFPSYPVMEKSLEFWRARDLARKMEALKPLFVEPRSKGSFSETISAYYARVAAPGSTGATFLAVCRGKASEGLDFSDTNGRGVIVTGLPYPPRMDPRVVLKMQFLDEMKGQGGAGGQFLSGQEWYRQQASRAVNQAIGRVIRHRQDYGAVFLCDHRFAFADARAQLPSWVRPHVRVYDNFGHVIRDVAQFFRVAERTMPAPAPRATAPSVRGEDAVSEAKSPGPFFSTRKAKSLDLHVPSLKQRSSGSPAAGDPQEPVPARQRPRGLLAALEHSEQRAGSPGEEQAHSCSTLSLLSEKRPAEEPRGGSHPEEPVAGAQTDRAKLFMVAVKQELSQANFATFTQALQDYKGSDDFAALAACLGPLFAEDPKKHNLLQGFYQFVRPHHKQQFEEVCIQLTGRGCGYRPEHSIPRRQRAQPVLDPTGRTAPDPKLTVSTAAAQQLDPQEHLNQGRPHLSPRPPPTGDPGSQPQWGSGVPRAGKQGQHAVSAYLADARRALGSAGCSQLLAALTAYKQDDDLDKVLAVLAALTTAKPEDFPLLHRFSMFVRPHHKQRFSQTCTDLTGRPYPGMEPPGPQEERLAVPPVLTHRAPQPGPSRSEKTGKTQSKISSFLRQRPAGTVGAGGEDAGPSQSSGPPHGPAASEWGL
notes: Plasmid pSP53; also called hsRTEL1ΔE813-E821 ΔR875-V881; source: S. cerevisiae strain ySP070, purified (anti-FLAG M2 resin, HiLoad Superdex 200); not shown: 2XFLAG, C-terminal, kept
As to B2, the binding result in assay [1] is “binds”.

B3: RTEL1ΔE813-E821 (enzyme, human, UniProt Q9NZ71-1 1-1219, looked up)
chain: MPKIVLNGVTVDFPFQPYKCQQEYMTKVLECLQQKVNGILESPTGTGKTLCLLCTTLAWREHLRDGISARKIAERAQGELFPDRALSSWGNAAAAAGDPIACYTDIPKIIYASRTHSQLTQVINELRNTSYRPKVCVLGSREQLCIHPEVKKQESNHLQIHLCRKKVASRSCHFYNNVEEKSLEQELASPILDIEDLVKSGSKHRVCPYYLSRNLKQQADIIFMPYNYLLDAKSRRAHNIDLKGTVVIFDEAHNVEKMCEESASFDLTPHDLASGLDVIDQVLEEQTKAAQQGEPHPEFSADSPSPGLNMELEDIAKLKMILLRLEGAIDAVELPGDDSGVTKPGSYIFELFAEAQITFQTKGCILDSLDQIIQHLAGRAGVFTNTAGLQKLADIIQIVFSVDPSEGSPGSPAGLGALQSYKVHIHPDAGHRRTAQRSDAWSTTAARKRGKVLSYWCFSPGHSMHELVRQGVRSLILTSGTLAPVSSFALEMQIPFPVCLENPHIIDKHQIWVGVVPRGPDGAQLSSAFDRRFSEECLSSLGKALGNIARVVPYGLLIFFPSYPVMEKSLEFWRARDLARKMEALKPLFVEPRSKGSFSETISAYYARVAAPGSTGATFLAVCRGKASEGLDFSDTNGRGVIVTGLPYPPRMDPRVVLKMQFLDEMKGQGGAGGQFLSGQEWYRQQASRAVNQAIGRVIRHRQDYGAVFLCDHRFAFADARAQLPSWVRPHVRVYDNFGHVIRDVAQFFRVAERTMPAPAPRATAPSVRGEDAVSEAKSPGPFFSTRKAKSLDLHVPSLKQRSSGSPAAGDPQEPVPARQRPRGLLAALEHSEQRAGSPGEEQAHSCSTLSLLSEKRPAEEPRGGRKKIRLVSHPEEPVAGAQTDRAKLFMVAVKQELSQANFATFTQALQDYKGSDDFAALAACLGPLFAEDPKKHNLLQGFYQFVRPHHKQQFEEVCIQLTGRGCGYRPEHSIPRRQRAQPVLDPTGRTAPDPKLTVSTAAAQQLDPQEHLNQGRPHLSPRPPPTGDPGSQPQWGSGVPRAGKQGQHAVSAYLADARRALGSAGCSQLLAALTAYKQDDDLDKVLAVLAALTTAKPEDFPLLHRFSMFVRPHHKQRFSQTCTDLTGRPYPGMEPPGPQEERLAVPPVLTHRAPQPGPSRSEKTGKTQSKISSFLRQRPAGTVGAGGEDAGPSQSSGPPHGPAASEWGL
notes: Plasmid pSP51; also called hsRTEL1ΔE813-E821; source: S. cerevisiae strain ySP075, purified (anti-FLAG M2 resin, HiLoad Superdex 200); not shown: 2XFLAG, C-terminal, kept
For B3, the binding result in assay [2] and in assay [1] was “binds” each time.

B4: RTEL1ΔL834-G846 (enzyme, human, UniProt Q9NZ71-1 1-1219, looked up)
chain: MPKIVLNGVTVDFPFQPYKCQQEYMTKVLECLQQKVNGILESPTGTGKTLCLLCTTLAWREHLRDGISARKIAERAQGELFPDRALSSWGNAAAAAGDPIACYTDIPKIIYASRTHSQLTQVINELRNTSYRPKVCVLGSREQLCIHPEVKKQESNHLQIHLCRKKVASRSCHFYNNVEEKSLEQELASPILDIEDLVKSGSKHRVCPYYLSRNLKQQADIIFMPYNYLLDAKSRRAHNIDLKGTVVIFDEAHNVEKMCEESASFDLTPHDLASGLDVIDQVLEEQTKAAQQGEPHPEFSADSPSPGLNMELEDIAKLKMILLRLEGAIDAVELPGDDSGVTKPGSYIFELFAEAQITFQTKGCILDSLDQIIQHLAGRAGVFTNTAGLQKLADIIQIVFSVDPSEGSPGSPAGLGALQSYKVHIHPDAGHRRTAQRSDAWSTTAARKRGKVLSYWCFSPGHSMHELVRQGVRSLILTSGTLAPVSSFALEMQIPFPVCLENPHIIDKHQIWVGVVPRGPDGAQLSSAFDRRFSEECLSSLGKALGNIARVVPYGLLIFFPSYPVMEKSLEFWRARDLARKMEALKPLFVEPRSKGSFSETISAYYARVAAPGSTGATFLAVCRGKASEGLDFSDTNGRGVIVTGLPYPPRMDPRVVLKMQFLDEMKGQGGAGGQFLSGQEWYRQQASRAVNQAIGRVIRHRQDYGAVFLCDHRFAFADARAQLPSWVRPHVRVYDNFGHVIRDVAQFFRVAERTMPAPAPRATAPSVRGEDAVSEAKSPGPFFSTRKAKSLDLHVPSLKQRSSGSPAAGDPESSLCVEYEQEPVPARQRPRGSPGEEQAHSCSTLSLLSEKRPAEEPRGGRKKIRLVSHPEEPVAGAQTDRAKLFMVAVKQELSQANFATFTQALQDYKGSDDFAALAACLGPLFAEDPKKHNLLQGFYQFVRPHHKQQFEEVCIQLTGRGCGYRPEHSIPRRQRAQPVLDPTGRTAPDPKLTVSTAAAQQLDPQEHLNQGRPHLSPRPPPTGDPGSQPQWGSGVPRAGKQGQHAVSAYLADARRALGSAGCSQLLAALTAYKQDDDLDKVLAVLAALTTAKPEDFPLLHRFSMFVRPHHKQRFSQTCTDLTGRPYPGMEPPGPQEERLAVPPVLTHRAPQPGPSRSEKTGKTQSKISSFLRQRPAGTVGAGGEDAGPSQSSGPPHGPAASEWGL
notes: Plasmid pSP48; also called hsRTEL1ΔL834-G846; source: S. cerevisiae strain ySP072, purified (anti-FLAG M2 resin, HiLoad Superdex 200); not shown: 2XFLAG, C-terminal, kept
On to B4, for which the binding result in assay [2] was “binds”.
